Patent publication US20240002497A1 (Merck Sharp & Dohme, published 2024)
Residue numbers refer to the chain shown, from its start. Names may count otherwise. One block for each binder: values may come before it.

Legend:
huNav1.7α + β1-β2-β3 [1] = target: T1, huNav1.7α + β1-β2-β3 (human, UniProt Q15858 1-1988; A5A6L6 19-218; O60939 30-215; Q2KI11 23-215); test: binding FACS, CHO FlpIn cells
T1 construct: Cell line (CHO FlpIn, HEK FlpIn, transient HEK293T) is named under assay; also called huNav1.7-beta1-beta2-beta3; human Nav1.7α with Navβ1, Navβ2 and Navβ3
Protocol: (§1) Binding of the ISVDs to cell-expressed Nav1.7α was detected via murine anti-Flag (Sigma, catalog #F1804). Briefly, cells were resuspended in FACS buffer (PBS, 10% FBS, NaN₃) and transferred to a 96-well V-bottom plate at 1×10^5 cells/well. Purified FLAG3-tagged ISVD was diluted in FACS buffer and added to the cells for 30 minutes at 4° C. […] Prior to the read-out, the samples were resuspended in 1 μg/mL propidium iodide (Sigma, catalog #P4170) to exclude dead cells. Between each step, the cells were centrifuged for 5 minutes at 200 grams and washed with 100 μL/well FACS buffer.

rhNav1.7α + β1-β2-β3 = target: T2, rhNav1.7α + β1-β2-β3 (rhesus monkey); test: binding FACS, CHO FlpIn cells
T2 construct: also called rhNav1.7-beta1-beta2-beta3; rhesus Nav1.7α
Protocol: as §1

huNav1.7α + β1-β2-β3 [2] = target: T3, huNav1.7α + β1-β2-β3 (human, UniProt Q15858 1-1988; A5A6L6 19-218; O60939 30-215; Q2KI11 23-215); test: binding FACS, CHO FlpIn
T3 construct: also called huNav1.7-beta1-beta2-beta3; huNav1.7-β1-β2-β3
Protocol: as §1

B2: F010301884 (VHH)
VHH: EVQLVESGGGLVQPGGSLRLSCATTSRAFIRDVFTGWYRRVPGKERELVARIYAGGNTNYADFAKGRFSISRDNAKKMVTLRMSNLKPEDTGVYYCLFSGTINTGREYRSGDYWGQGTLVTVSS
notes: N53A vs F0103464B09 (Kabat)
- EC50 (huNav1.7α + β1-β2-β3 [1]): 6 nM
- Bmax (rhNav1.7α + β1-β2-β3): 47%
- EC50 (rhNav1.7α + β1-β2-β3): 50 nM

B3: F010301880 (VHH)
VHH: B2 VHH with A54N, G55S
notes: G54S vs F0103464B09 (Kabat)
- EC50 (huNav1.7α + β1-β2-β3 [1]): 4.9 nM
- Bmax (rhNav1.7α + β1-β2-β3): 73%
- EC50 (rhNav1.7α + β1-β2-β3): 24 nM

B4: F010301886 (VHH)
VHH: B2 VHH with A54N, N59Q
notes: N58Q vs F0103464B09 (Kabat)
- EC50 (huNav1.7α + β1-β2-β3 [1]): 4.3 nM
- Bmax (rhNav1.7α + β1-β2-β3): 81%
- EC50 (rhNav1.7α + β1-β2-β3): 15 nM

B6: F010301888 (VHH)
VHH: B2 VHH with S26H, A54N
notes: S26H vs F0103464B09 (Kabat)
- EC50 (huNav1.7α + β1-β2-β3 [1]): 5.3 nM
- Bmax (rhNav1.7α + β1-β2-β3): 95%
- EC50 (rhNav1.7α + β1-β2-β3): 8.7 nM

B8: F010301890 (VHH)
VHH: B2 VHH with T35V, A54N
notes: T35V vs F0103464B09 (Kabat)
- EC50 (huNav1.7α + β1-β2-β3 [1]): 5 nM
- Bmax (rhNav1.7α + β1-β2-β3): 58%
- EC50 (rhNav1.7α + β1-β2-β3): 20 nM

B10: F010301881 (VHH)
VHH: B2 VHH with A54N, G55W
notes: G54W vs F0103464B09 (Kabat)
- EC50 (huNav1.7α + β1-β2-β3 [1]): 4.2 nM
- Bmax (rhNav1.7α + β1-β2-β3): 99%
- EC50 (rhNav1.7α + β1-β2-β3): 5.8 nM

B11: F010301892 (VHH)
VHH: B2 VHH with V33L, A54N
notes: V33L vs F0103464B09 (Kabat); also called F0103464B09(V33L)
- EC50 (huNav1.7α + β1-β2-β3 [1]): 4 nM
- Bmax (rhNav1.7α + β1-β2-β3): 100%
- EC50 (rhNav1.7α + β1-β2-β3): 9.1 nM

B12: F010301883 (VHH)
VHH: B2 VHH with I52V, A54N
notes: I51V vs F0103464B09 (Kabat)
- EC50 (huNav1.7α + β1-β2-β3 [1]): 4.8 nM
- Bmax (rhNav1.7α + β1-β2-β3): 48%
- EC50 (rhNav1.7α + β1-β2-β3): 34 nM

B13: F010301887 (VHH)
VHH: B2 VHH with R31Q, A54N
notes: R31Q vs F0103464B09 (Kabat)
- EC50 (huNav1.7α + β1-β2-β3 [1]): 7.5 nM
- Bmax (rhNav1.7α + β1-β2-β3): 51%
- EC50 (rhNav1.7α + β1-β2-β3): 59 nM

B14: F010301891 (VHH)
VHH: B2 VHH with A54N, T58V
notes: T57V vs F0103464B09 (Kabat)
- EC50 (huNav1.7α + β1-β2-β3 [1]): 4.7 nM
- Bmax (rhNav1.7α + β1-β2-β3): 45%
- EC50 (rhNav1.7α + β1-β2-β3): 26 nM

B15: F010301889 (VHH)
VHH: B2 VHH with A54N, S99A
notes: S95A vs F0103464B09 (Kabat)
- EC50 (huNav1.7α + β1-β2-β3 [1]): 5.4 nM
- Bmax (rhNav1.7α + β1-β2-β3): 92%
- EC50 (rhNav1.7α + β1-β2-β3): 8.5 nM

Now from value to binder:

- EC50 (huNav1.7α + β1-β2-β3 [1]): 4.8 nM
- Bmax (rhNav1.7α + β1-β2-β3): 74%
- EC50 (rhNav1.7α + β1-β2-β3): 22 nM
B1: F010301867 (VHH)
VHH: B2 VHH with A28Q, A54N
notes: A28Q vs F0103464B09 (Kabat)

- EC50 (huNav1.7α + β1-β2-β3 [1]): 7.1 nM
- Bmax (rhNav1.7α + β1-β2-β3): 83%
- EC50 (rhNav1.7α + β1-β2-β3): 27 nM
B5: F010301878 (VHH)
VHH: B2 VHH with A54N, G55E
notes: G54E vs F0103464B09 (Kabat)

- EC50 (huNav1.7α + β1-β2-β3 [1]): 8 nM
- Bmax (rhNav1.7α + β1-β2-β3): 100%
- EC50 (rhNav1.7α + β1-β2-β3): 18 nM
B7: F010301885 (VHH)
VHH: B2 VHH with A54E
notes: N53E vs F0103464B09 (Kabat)

- EC50 (huNav1.7α + β1-β2-β3 [1]): 4.5 nM
- Bmax (rhNav1.7α + β1-β2-β3): 43%
- EC50 (rhNav1.7α + β1-β2-β3): 41 nM
B9: F010301882 (VHH)
VHH: B2 VHH with I30V, A54N
notes: I30V vs F0103464B09 (Kabat)

- Bmax (huNav1.7α + β1-β2-β3 [2]): 100%
- EC50 (huNav1.7α + β1-β2-β3 [2]): 5.3 nM
B16: F010302341 (VHH)
VHH: EVQLVESGGGVVQPGGSLRLSCAASSRQFIRDVFTGWYRQAPGKQRELVARIYNEGNTNYADSAKGRFTISRDNAKKTVYLQMNSLRPEDTALYYCLFSGTISTGREYRSGDYWGQGTLVTVSS
